Assay results as given in patent publication US20250011363A1, “OPTIMIZED SHORTENED PEPTIDE THAT BINDS TO ACETYLCHOLINE RECEPTOR, AND USE THEREOF” (SKINMED CO., LTD., priority 2021, published 2025).

The binders below were run against acetylcholine receptor (assay: SPR, AchR immobilized on chip, peptide at 10 uM).
With RRRLKK [6mer-2-1] the Binding affinity was 131 RU. RWYLKR [6mer-2-2] gave a Binding affinity of 139 RU. In the case of KVYSRK [6mer-2-3], the Binding affinity is reported as 148 RU. With RSYYRR [6mer-2-4] the Binding affinity was 125 RU. Binder RWVSKR [6mer-2-5] has a Binding affinity of 124 RU. Binder KSICRR [6mer-2-6] has a Binding affinity of 122 RU. For KSRCRK [6mer-2-7], the Binding affinity was 126 RU. For KSLQKK [6mer-2-8], the Binding affinity was 135 RU. In the case of KLICRK [6mer-2-9], the Binding affinity is reported as 139 RU. KVFSKK [6mer-2-10] was tested, and the Binding affinity was 124 RU. Work on RQYQRR [6mer-2-11] yielded a Binding affinity of 121 RU. RQFQRK [6mer-2-12] showed a Binding affinity of 147 RU. For RQYTRK [6mer-2-13], the Binding affinity was 123 RU. For RGRQKK [6mer-2-14], the Binding affinity was 153 RU. KQVRKR [6mer-2-15] was tested, and the Binding affinity was 133 RU. KGVCRR [6mer-2-16] showed a Binding affinity of 121 RU. RWVTRR [6mer-2-17] was tested, and the Binding affinity was 142 RU. With RSILRR [6mer-2-18] the Binding affinity was 124 RU. RSFSKK [6mer-2-19] was tested, and the Binding affinity was 135 RU. In the case of RVQTRR [6mer-2-20], the Binding affinity is reported as 137 RU. RLFTRK [6mer-2-21] gave a Binding affinity of 141 RU. For RQIRKK [6mer-2-22], the Binding affinity was 124 RU. Work on RWVRKK [6mer-2-23] yielded a Binding affinity of 148 RU. With KGIQRK [6mer-2-24] the Binding affinity was 141 RU. With KQVQKR [6mer-2-25] the Binding affinity was 148 RU. RWRRKK [6mer-2-26] showed a Binding affinity of 121 RU. For KVIRRK [6mer-2-27], the Binding affinity was 128 RU. KVLSRK [6mer-2-28] was tested, and the Binding affinity was 142 RU. Binder RSQRKR [6mer-2-29] has a Binding affinity of 142 RU. RQFYKK [6mer-2-30] gave a Binding affinity of 139 RU. With KSYQRK [6mer-2-31] the Binding affinity was 121 RU. RRLCRK [6mer-2-32] was tested, and the Binding affinity was 139 RU. For RQFRKK [6mer-2-33], the Binding affinity was 142 RU. Work on KVFRRK [6mer-2-34] yielded a Binding affinity of 124 RU. RWISRK [6mer-2-35] showed a Binding affinity of 148 RU. RRLQKK [6mer-2-36] was tested, and the Binding affinity was 131 RU. For KLLYRK [6mer-2-37], the Binding affinity was 148 RU. RSYYKR [6mer-2-38] gave a Binding affinity of 136 RU. For RWRYRK [6mer-2-39], the Binding affinity was 137 RU. In the case of RRYRKK [6mer-2-40], the Binding affinity is reported as 153 RU. KQLCKR [6mer-2-41] was tested, and the Binding affinity was 142 RU. KLLSKR [6mer-2-42] gave a Binding affinity of 126 RU. For RVITKR [6mer-2-43], the Binding affinity was 146 RU. KSVRRK [6mer-2-44] gave a Binding affinity of 145 RU. Work on RSLTKK [6mer-2-45] yielded a Binding affinity of 121 RU. KLYLKR [6mer-2-46] gave a Binding affinity of 153 RU. KLQSRR [6mer-2-47] showed a Binding affinity of 148 RU. In the case of RRFRKK [6mer-2-48], the Binding affinity is reported as 153 RU. For RLRCRK [6mer-2-49], the Binding affinity was 154 RU. Work on RSQSKR [6mer-2-50] yielded a Binding affinity of 125 RU. In the case of KQFLKK [6mer-2-51], the Binding affinity is reported as 139 RU. Binder KRQRKK [6mer-2-52] has a Binding affinity of 136 RU. In the case of KSLSRR [6mer-2-53], the Binding affinity is reported as 125 RU. Work on KGRRRR [6mer-2-54] yielded a Binding affinity of 124 RU. RLFYKK [6mer-2-55] was tested, and the Binding affinity was 125 RU. With RSQLRR [6mer-2-56] the Binding affinity was 149 RU. KQRCRR [6mer-2-57] gave a Binding affinity of 139 RU. KRLQRK [6mer-2-58] gave a Binding affinity of 122 RU. For RVLSRK [6mer-2-59], the Binding affinity was 123 RU. With RRLSKK [6mer-2-60] the Binding affinity was 148 RU. RGFQRK [6mer-2-61] showed a Binding affinity of 148 RU. RLVTKR [6mer-2-62] was tested, and the Binding affinity was 147 RU. KSFRKR [6mer-2-63] was tested, and the Binding affinity was 121 RU. In the case of KSVSKK [6mer-2-64], the Binding affinity is reported as 136 RU. Binder KGVCKR [6mer-2-65] has a Binding affinity of 148 RU. Work on RVIRRR [6mer-2-66] yielded a Binding affinity of 123 RU. KLFCKK [6mer-2-67] was tested, and the Binding affinity was 124 RU.

The binders below were run against acetylcholine receptor (assay: SPR, peptide at 10 uM over immobilized acetylcholine receptor).
In the case of KWQLKR [6mer-2-124], the Binding affinity (RU) is reported as 126 RU. With KVQLRR [6mer-2-125] the Binding affinity (RU) was 142 RU. KWLYRR [6mer-2-126] was tested, and the Binding affinity (RU) was 148 RU. In the case of RLYLRK [6mer-2-127], the Binding affinity (RU) is reported as 136 RU. For KSYYRR [6mer-2-128], the Binding affinity (RU) was 147 RU. With KSVLRK [6mer-2-129] the Binding affinity (RU) was 139 RU. In the case of RGVCRR [6mer-2-130], the Binding affinity (RU) is reported as 122 RU. Work on KQQTKR [6mer-2-131] yielded a Binding affinity (RU) of 148 RU. Binder KLYCKK [6mer-2-132] has a Binding affinity (RU) of 139 RU. KRRLKK [6mer-2-133] gave a Binding affinity (RU) of 145 RU. Binder RLFQRK [6mer-2-134] has a Binding affinity (RU) of 148 RU. Work on RWFYKK [6mer-2-135] yielded a Binding affinity (RU) of 124 RU.
